The molecules below were run on human HL60 cells (assay: SWATH-MS proteomics, differential protein representation, akirin2 KO vs WT HL60 cells). Conditions: SWATH-MS, akirin2 KO vs WT HL60 cells; sheet "Under-represented in KO".
Assay type: cell-based
How it was run: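 Three biological replicates per genotype; 150 µg protein FASP/trypsin digested; IDA library (3 µg digest); SWATH variable windows, 5 µg/sample, 3.6 s cycle; gradient 5–30% B 120 min then 30–60% B 15 min; 1% global FDR; TAS normalization.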

| Molecule | Fold Change | Log (Fold Change) |
| --- | --- | --- |
| sp¦P07954¦FUMH_HUMAN (protein, UniProt P07954 45-510, looked up) Fumarate hydratase, …: ASQNSFRIEYDTFGELKVPNDKYYGAQTVRSTMNFKIGGVTERMPTPVIKAFGILKRAAAEVNQDYGLDPKIANAIMKAADEVAEGKLNDHFPLVVWQTGSGTQTNMNVNEVISNRAIEMLGGELGSKIPVHPNDHVNKSQSSNDTFPTAMHIAAAIEVHEVLLPGLQKLHDALDAKSKEFAQIIKIGRTHTQDAVPLTLGQEFSGYVQQVKYAMTRIKAAMPRIYELAAGGTAVGTGLNTRIGFAEKVAAKVAALTGLPFVTAPNKFEALAAHDALVELSGAMNTTACSLMKIANDIRFLGSGPRSGLGELILPENEPGSSIMPGKVNPTQCEAMTMVAAQVMGNHVAVTVGGSNGHFELNVFKPMMIKNVLHSARLLGDASVSFTENCVVGIQANTERINKLMNESLMLVTALNPHIGYDKAAKIAKTAHKNGSTLKETAIELGYLTAEQFDEWVKPKDMLGPK | 0.754 | -0.1226 |
| sp¦O43390¦HNRPR_HUMAN (protein, UniProt O43390 2-633, looked up) Heterogeneous nuclear …: ANQVNGNAVQLKEEEEPMDTSSVTHTEHYKTLIEAGLPQKVAERLDEIFQTGLVAYVDLDERAIDALREFNEEGALSVLQQFKESDLSHVQNKSAFLCGVMKTYRQREKQGSKVQESTKGPDEAKIKALLERTGYTLDVTTGQRKYGGPPPDSVYSGVQPGIGTEVFVGKIPRDLYEDELVPLFEKAGPIWDLRLMMDPLSGQNRGYAFITFCGKEAAQEAVKLCDSYEIRPGKHLGVCISVANNRLFVGSIPKNKTKENILEEFSKVTEGLVDVILYHQPDDKKKNRGFCFLEYEDHKSAAQARRRLMSGKVKVWGNVVTVEWADPVEEPDPEVMAKVKVLFVRNLATTVTEEILEKSFSEFGKLERVKKLKDYAFVHFEDRGAAVKAMDEMNGKEIEGEEIEIVLAKPPDKKRKERQAARQASRSTAYEDYYYHPPPRMPPPIRGRGRGGGRGGYGYPPDYYGYEDYYDDYYGYDYHDYRGGYEDPYYGYDDGYAVRGRGGGRGGRGAPPPPRGRGAPPPRGRAGYSQRGAPLGPPRGSRGGRGGPAQQQRGRGSRGSRGNRGGNVGGKRKADGYNQPDSKRRQTNNQQNWGSQPIAQQPLQQGGDYSGNYGYNNDNQEFYQDTYGQQWK | 0.7565 | -0.1212 |
| sp¦P18859¦ATP5J_HUMAN (protein, UniProt P18859 33-108, looked up) ATP synthase peripheral stalk …: NKELDPIQKLFVDKIREYKSKRQTSGGPVDASSEYQQELERELFKLKQMFGNADMNTFPTFKFEDPKFEVIEKPQA | 0.7532 | -0.1231 |
| sp¦Q9NVI7¦ATD3A_HUMAN (protein, UniProt Q9NVI7 2-586, looked up) ATPase family AAA …: SWLFGINKGPKGEGAGPPPPLPPAQPGAEGGGDRGLGDRPAPKDKWSNFDPTGLERAAKAARELEHSRYAKDALNLAQMQEQTLQLEQQSKLKEYEAAVEQLKSEQIRAQAEERRKTLSEETRQHQARAQYQDKLARQRYEDQLKQQQLLNEENLRKQEESVQKQEAMRRATVEREMELRHKNEMLRVEAEARARAKAERENADIIREQIRLKAAEHRQTVLESIRTAGTLFGEGFRAFVTDWDKVTATVAGLTLLAVGVYSAKNATLVAGRFIEARLGKPSLVRETSRITVLEALRHPIQVSRRLLSRPQDALEGVVLSPSLEARVRDIAIATRNTKKNRSLYRNILMYGPPGTGKTLFAKKLALHSGMDYAIMTGGDVAPMGREGVTAMHKLFDWANTSRRGLLLFVDEADAFLRKRATEKISEDLRATLNAFLYRTGQHSNKFMLVLASNQPEQFDWAINDRINEMVHFDLPGQEERERLVRMYFDKYVLKPATEGKQRLKLAQFDYGRKCSEVARLTEGMSGREIAQLAVSWQATAYASEDGVLTEAMMDTRVQDAVQQHQQKMCWLKAEGPGRGDEPSPS | 0.7506 | -0.1246 |

From PMC8298264, “Function of cofactor Akirin2 in the regulation of gene expression in model human neutrophil-like HL60 cells” (Bioscience Reports, 2021)
